Measurements published in US20250179196A1 (Janssen / Centocor, published 2025).

B1: I23RB71 (antibody, mouse IgG2a, kappa, V domains shown)
VH: DVQLQESGPDLVKPSQSLSLTCTVTDYSITRGYNWHWIRQFPGNKLEWMGYIHYSGSTNYNPSLKSRISITRDTSKNQFFLQLNSVTTEDTATYYCARQYGLKAMDYWGQGTSVTVSS
VL: DIVMTQSHKFMSTSVGDRVSITCKASQDVITAVAWYQQKPGQSPKLLIYSASYRYTGVPDRFTGSGSGTDFTFTISSVQAEDLAVYFCQQHFGTPYTFGSGTKLEMKR
notes: mouse immunization; mouse IgG2a/kappa
B2: I23RB173 (antibody, mouse IgG2a, kappa, V domains shown)
VH: DVQLQESGPGLVKPSQSLSLTCSVTGYSITSGYYWNWIRQFPGNKLEWMGYISYDGGNNYNPSLKNRISITRDTSKNQFFLKLNSVTTEDTATYYCARDAGLLPYYAMDYWGQGTTLTVSS
VL: DIKMTQSPAIMSASPGEKVTITCSASSSVSYMHWFQQKPGTSPKLWIYSTSNLASGVPARFSGSGSGTSYSLTISRMEAEDAATYYCQQRSSYPLTFGDGTKLEMKR
notes: as for B1
B3: I23RB165 (antibody, mouse IgG2a, kappa, V domains shown)
VH: EVQLQQSGAELVRPGASVKLSCTASGFNIKDSLMHWVKQRPEQGLEWIGWIDPEDGKTKYAPKFQDKATITADTSSNTAYLQLSSLTSEDTAIYYCARREVLDYFDYWGQGTTLTVSS
VL: DIVMTQSPASLAVSLGQRATISCRASKSVSTSGYSYMHWYQQKPGQPPKLLIYLASNLESGVPARFSGSGSGTDFTLNIHPVEEEDAATYYCQHSRELPLTFGAGTKLEMKR
notes: as for B1

Target: T1, rat IL-23R extracellular domain (ECD) protein (rat)
T1 construct: also called rat IL-23R ECD; F1LX96 amino acids 24-354
T1 chain: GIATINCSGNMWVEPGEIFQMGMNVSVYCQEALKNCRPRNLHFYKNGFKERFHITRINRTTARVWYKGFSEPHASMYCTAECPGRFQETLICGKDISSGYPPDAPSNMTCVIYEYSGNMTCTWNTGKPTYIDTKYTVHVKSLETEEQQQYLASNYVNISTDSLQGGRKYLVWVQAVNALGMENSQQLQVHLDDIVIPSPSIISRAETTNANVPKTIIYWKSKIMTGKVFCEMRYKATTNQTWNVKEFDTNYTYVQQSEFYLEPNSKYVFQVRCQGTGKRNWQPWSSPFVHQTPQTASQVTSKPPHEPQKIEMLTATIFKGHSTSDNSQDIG
Assay: SPR Biacore 8K, supernatant
How it was run: (§1)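 Kinetics fitted to a 1:1 Langmuir model gave on-rate, off-rate and KD. Human or rat IL-23R ECD flowed over captured mAbs (~150 RU) at 0.8–500 nM, 5-fold dilutions: 3 min binding at 50 μL/min, then 30 min buffer, 25 °C, HBS-P+ plus 100 μg/ml BSA.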

Row | Binder | binding result
1 | B1 | no binding (tested: 500 nM)
2 | B2 | no binding (tested: 500 nM)
3 | B3 | no binding (tested: 500 nM)

Target: T2, human IL-23R on the cell surface (human, UniProt Q5VWK5 24-629)
T2 construct: whole, on cells; also called cell surface human IL-23R; IL-23R on iLite cells, HEK-IL-23R cells and primary human immune cells
T2 sequence (looked up): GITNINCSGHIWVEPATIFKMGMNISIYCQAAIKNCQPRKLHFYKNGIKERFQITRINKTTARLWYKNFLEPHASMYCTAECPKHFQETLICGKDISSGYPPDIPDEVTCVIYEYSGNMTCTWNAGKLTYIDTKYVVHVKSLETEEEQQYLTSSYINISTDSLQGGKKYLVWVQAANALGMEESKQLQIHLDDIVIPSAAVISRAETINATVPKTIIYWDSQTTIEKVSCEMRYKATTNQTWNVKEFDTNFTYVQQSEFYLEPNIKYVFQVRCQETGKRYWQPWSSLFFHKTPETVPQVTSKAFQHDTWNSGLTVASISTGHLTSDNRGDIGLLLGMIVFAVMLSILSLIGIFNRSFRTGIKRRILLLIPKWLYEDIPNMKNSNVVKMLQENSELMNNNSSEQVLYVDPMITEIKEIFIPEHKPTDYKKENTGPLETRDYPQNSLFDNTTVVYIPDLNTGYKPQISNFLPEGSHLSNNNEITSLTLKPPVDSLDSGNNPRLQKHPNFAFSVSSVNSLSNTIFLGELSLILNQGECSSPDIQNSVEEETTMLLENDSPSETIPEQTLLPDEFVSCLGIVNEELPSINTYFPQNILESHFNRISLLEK
Assay: flow cytometry, HEK-IL-23R cells (Expt E)

Row | Binder | EC50 [nM]
4 | B1 | ≤ 9.7
5 | B2 | ≤ 9.7
6 | B3 | ≤ 9.7

Target: T3, Recombinant human IL-23 receptor (IL-23R) extracellular domain (ECD) protein (human, UniProt Q5VWK5 24-355)
T3 construct: also called human IL-23R ECD; hu IL-23R ECD
T3 sequence: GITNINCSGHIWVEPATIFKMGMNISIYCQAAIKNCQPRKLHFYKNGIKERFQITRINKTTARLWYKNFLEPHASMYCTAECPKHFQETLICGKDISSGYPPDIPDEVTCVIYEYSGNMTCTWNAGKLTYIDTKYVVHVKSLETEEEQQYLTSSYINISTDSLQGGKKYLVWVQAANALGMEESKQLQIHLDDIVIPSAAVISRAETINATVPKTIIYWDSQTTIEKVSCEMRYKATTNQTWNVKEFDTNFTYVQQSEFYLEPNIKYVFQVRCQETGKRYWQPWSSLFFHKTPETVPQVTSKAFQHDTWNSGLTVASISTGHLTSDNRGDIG
Assay: SPR Biacore 8K, supernatant, analysis 1
How it was run: as §1

Row | Binder | Kd [nM] | koff [s⁻¹] | kon [M⁻¹ s⁻¹]
7 | B1 | 0.328 | 0.000231 | 704000
8 | B2 | 25.7 | 0.00759 | 296000
9 | B3 | 18.1 | 0.00806 | 446000

Target: T3, Recombinant human IL-23 receptor …
Assay: SPR Biacore 8K, supernatant, analysis 2
How it was run: as §1

Row | Binder | Kd [nM] | koff [s⁻¹] | kon [M⁻¹ s⁻¹]
10 | B1 | 0.129 | 4.63e-05 | 358000
11 | B2 | 36.1 | 0.0103 | 285000
12 | B3 | 29.1 | 0.00941 | 324000
